Numbering of substitutions follows the chain as printed. Numbers in names are those of the source.
T1: human GFRα2 expressed with a C-terminal human Fc tag and a hexahistidine tag (human, UniProt O00451 22-441, limits assumed)
T1 construct: bought protein; also called hGFRα2-hFc-6His; hGFRα2-hFc-6his
T1 sequence (looked up): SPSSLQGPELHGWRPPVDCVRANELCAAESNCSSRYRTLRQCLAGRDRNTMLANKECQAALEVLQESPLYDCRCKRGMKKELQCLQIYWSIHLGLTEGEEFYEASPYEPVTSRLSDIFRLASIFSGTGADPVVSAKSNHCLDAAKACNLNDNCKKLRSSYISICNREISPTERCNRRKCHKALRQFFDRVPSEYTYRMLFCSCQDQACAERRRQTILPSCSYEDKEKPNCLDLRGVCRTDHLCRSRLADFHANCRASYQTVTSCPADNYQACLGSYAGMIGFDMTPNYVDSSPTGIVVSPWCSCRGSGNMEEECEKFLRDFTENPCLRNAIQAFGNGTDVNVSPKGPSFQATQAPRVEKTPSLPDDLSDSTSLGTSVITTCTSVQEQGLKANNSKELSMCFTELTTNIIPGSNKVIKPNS

T2: human GFRα1 expressed with a C-terminal human Fc tag and a hexahistidine tag (human, UniProt P56159 25-429, limits assumed)
T2 construct: bought protein; also called hGFRα1-hFc-6His; hGFRα1-hFc-6his
T2 sequence (looked up): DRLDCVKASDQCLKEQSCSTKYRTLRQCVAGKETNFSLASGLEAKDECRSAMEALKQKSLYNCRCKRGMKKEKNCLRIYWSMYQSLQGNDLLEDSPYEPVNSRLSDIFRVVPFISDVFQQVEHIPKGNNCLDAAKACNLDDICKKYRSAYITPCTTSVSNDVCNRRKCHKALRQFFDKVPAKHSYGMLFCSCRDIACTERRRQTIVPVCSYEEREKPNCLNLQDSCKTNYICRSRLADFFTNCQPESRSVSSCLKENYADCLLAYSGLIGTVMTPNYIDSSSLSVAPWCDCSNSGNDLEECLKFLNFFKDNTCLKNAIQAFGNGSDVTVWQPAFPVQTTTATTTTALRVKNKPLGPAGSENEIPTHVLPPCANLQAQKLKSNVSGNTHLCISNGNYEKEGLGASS

B1: H4H2352S (antibody, human IgG4, V domains shown)
VH: EVQLVQSGAEVKKPGASVKVSCKASGYTFTNYGITWVRQAPGQGLEWMGWISAYNGNTGYAQKFQGRVTMTTDTSTSTAYMELRSLRSDDTAVYYCAREDYDFWRAFDIWGQGTMVTVSS
VL: EIVLTQSPGTLSLSPGERATLSCRASQSVSSTYLAWLQQKPGQAPRLLIYGASSRATGIPDRFSGSGSGTDFTLTINRLEPEDFAVYYCQQYAYSPYTFGQGTKLEIK
notes: human IgG4 Fc (H4H); also called H4H2352S-1
B2: H4H2212N (antibody, human IgG4, V domains shown)
VH: EVQLLESGGGLVQPGGSLRLSCAASGFTFSSYAMSWVRQGPGKGLEWVSGISGSGGSTYNADSVKGRFTISRDNSKNTLYLQMNSLRAEDTAVYYCAKDSGTYWYYFDYWGQGILVTVSS
VL: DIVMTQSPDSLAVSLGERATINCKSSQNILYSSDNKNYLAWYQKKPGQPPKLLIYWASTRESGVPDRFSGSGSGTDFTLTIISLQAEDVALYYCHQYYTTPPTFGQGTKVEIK
notes: human IgG4 Fc (H4H)
B3: H4H2342P (antibody, human IgG4, V domains shown)
VH: EVQLLESGGGLVQPGGSLRLSCAASGFTFSTYAMSWVRQAPGKGLEWVSAIRGNGVNTYYGDSMKGRFTISRDNSKDTLYLQMNSLRAEDTAVYYCAKNKWELLVFEYWGQGTLVTVSS
VL: DIQMTQSPSSLSASVGDRVTITCRASQDISNYLAWYQQKPGKVPKLLIYAASTLQSGVPFRFSGSGSGTDFTLTISSLQPEDVATYYCQKYNSAPPFGPGTKVDIK
notes: human IgG4 Fc (H4H)
B4: H4H2243N2 (antibody, human IgG4, V domains shown)
VH: QVQLVQSGAEVKKPGASVKVSCKASGYTFTSYGIIWVRQAPGQGLEWMGWISGYNGNTNYAQNLQGRVTMTTDTSTTTAYMELRSLRSDDTAVYYCARWGIATRPYYYYGMDVWGQGTTVTVSS
VL: DIQMTQSPSSLSASVGDRVTITCRASQDITNYLAWFQQKPGKAPKSLIYAASSLQSGVPSKFSGSGSGTDFTLTISSLQPEDFATYYCQQYNSYPPTFGPGTKVDIK
notes: human IgG4 Fc (H4H)
B5: H4H2294S (antibody, human IgG4, V domains shown)
VH: EVQLVESGGGLVQPGGSLRLSCAASGFTFSSYAMSWVRQAPGKGLEWVSVISGSGGSTYYADAVKGRFTISRDNSKHTLYLQMNSLRAEDTAVYYCTKPSSYSSSNFYYGMDVWGQGSTVTVSS
VL: DIQLTQSPSSVSASVGDRVTITCRASQGISSWLAWYQQKPGKAPKLLIYAASSLQSGVPSRFSGSGSGTDFTLTISSLQPEDFATYYCQQTNSFPFPFGPGTKVDIK
notes: human IgG4 Fc (H4H)
B6: H4H2292S (antibody, human IgG4, V domains shown)
VH: EVQLVESGGGVVQPGRSLRLSCAASGFTFSSYGMHWVRQAPGKGLEWVSFIWYDGSNKYYADSVKGRFTISRDNSKNTLYLQMNSLTAEDTAVYYCARRGILTGTTAFDIWGQGTMVTVSS
VL: DIQMTQSPSSLSASVGDRVTITCRASQSISSYLNWYQQKPGKAPKLLIYAASSLQSGVPSRFSGSGSGTDFTLTIRSLIPEDFATYYCQQTYNTPFTFGPGTKVEIK
notes: human IgG4 Fc (H4H)
B7: H4H2355S (antibody, human IgG4, V domains shown)
VH: EVQLVESGGGLVQPGGSLRLSCAASGFTFSSYAMSWVRQVPGKGLEWVSAISGSGDNTYNAESVKGRFTISRDNSKNMLYLQMNSLRAEDTAVYYCAKTKFSSSLLFDYWGQGTLVTVSS
VL: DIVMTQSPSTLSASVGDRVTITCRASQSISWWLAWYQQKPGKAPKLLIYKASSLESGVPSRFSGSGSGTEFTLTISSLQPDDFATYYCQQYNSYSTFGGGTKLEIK
notes: human IgG4 Fc (H4H)
B8: H4H2236N3 (antibody, human IgG4, V domains shown)
VH: EVQLLESGGNLVQPGGSLRLSCAASGFTFSSYAMTWVRQAPGKGLEWVSTISGSGTSTYYADSVKGRFTISRDNSRDTVFLQMNSLRAEDTAVYYCSKPSALRFLHWLAMDVWGQGTLVTVSS
VL: B4 VL with S14F, T30R, A34D, S53N, K61R, S63G, S76N, A84V, P100G, D105E
notes: human IgG4 Fc (H4H)
B9: H4H2291S (antibody, human IgG4, V domains shown)
VH: EVQLVESGGGLVQPGESLRLSCAASGFTFSNYAMSWVRQAPGKGLEWVSVISGSGGSTYYADSVKGRFTMSRDNSKNTLYLQMNSLRAEDTAVYYCAKPPSRAARYFNYGMDVWGQGTTVTVSS
VL: B5 VL with D1A, Q3R, L4M, T91A, P97T, P100G, D105E
notes: human IgG4 Fc (H4H)
B10: H4H2296S (antibody, human IgG4, V domains shown)
VH: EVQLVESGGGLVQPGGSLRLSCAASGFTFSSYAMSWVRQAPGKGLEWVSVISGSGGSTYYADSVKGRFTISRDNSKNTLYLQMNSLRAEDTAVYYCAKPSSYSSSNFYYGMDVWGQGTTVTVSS
VL: B5 VL with Q3V, L4M, Q55R, S76T, Q90H, P97T, D105E
notes: human IgG4 Fc (H4H)
B11: H4H2295S (antibody, human IgG4, V domains shown)
VH: B5 VH with P14A, A23V, V50A, Y60S, A63S, H77N, S118T
VL: B5 VL with L4M, A50T, G68R, F94L, F96L, P97T, D105E
notes: human IgG4 Fc (H4H)

target: T1, human GFRα2 expressed with a C-terminal …; experiment: BLI Octet, antigen on anti-hFc tips, 100 ug/mL Ab
Method: (§1) The ability of anti-GFRα3 antibodies to bind to GDNF-family receptors was assessed using an Octet Red biosensor (Fortebio, Inc.). Antibodies were tested for binding to either human GFRα1 expressed with a C-terminal human Fc tag and a hexahistidine tag (hGFRα1-hFc-6His, R&D Systems #714-GR), human GFRα1 expressed with only a C-terminal human Fc tag (hGFRα1-hFc; SEQ ID: 376), human GFRα2 expressed with a C-terminal human Fc tag and a hexahistidine tag (hGFRα2-hFc-6His, R&D Systems #613-FR), human GFRα3 expressed with a C-terminal human Fc tag (hGFRα3-hFc, SEQ ID:371), or an irrelevant human Fc tagged protein. Antigens were captured onto anti-human Fc sensor tips from 10 ug/mL solutions for 5 minutes. The coated sensor tips were then blocked with a 100 ug/mL solution of irrelevant human Fc antibodies for 5 minutes. Blocked sensor tips were then submerged into wells containing […] of each anti-GFRα3 antibody or buffer alone for 10 minutes. The experiment was performed at 25° C. with a flow rate of 1000 rpm using HBST+BSA buffer (10 mM HEPES, 150 mM NaCl, 3 mM EDTA, 0.05% w/v Surfactant P20, 0.1 mg/mL BSA, pH 7.4). The binding response (measured in units of nm) at each step of the experiment was monitored and recorded.

| Bound (nm) | Binder |
| --- | --- |
| 0.04 | B1 |
| 0.02 | B2 |
| 0.12 | B3 |
| 0.06 | B4 |
| 0.06 | B5 |
| 0.05 | B6 |

target: T3, irrelevant human Fc tagged protein; experiment: BLI Octet, antigen on anti-hFc tips, 100 ug/mL Ab
T3 construct: negative control antigen; also called Irrelevant hFc tagged protein
Method: as §1

| Bound (nm) | Binder |
| --- | --- |
| 0.03 | B1 |
| 0 | B2 |
| 0.07 | B3 |
| 0.03 | B4 |
| 0.03 | B5 |
| 0.02 | B6 |

target: T4, human GFRα3 expressed with a C-terminal myc-myc-hexahistidine tag (human, UniProt O60609 32-374, biotinylated (sites not given) in ELISA format 2 and in the Octet cross-competition; not in SPR); experiment: blocking ELISA 2, biotin-hGFRα3-mmH to coated hARTEMIN-mmH + hRET-10His; IC50 cell 'enhancer'
T4 construct: also called hGFRα3-mmh; hGFRα3-mmH
T4 sequence (O60609 other isoform, or with tags, fused parts or gaps limits assumed): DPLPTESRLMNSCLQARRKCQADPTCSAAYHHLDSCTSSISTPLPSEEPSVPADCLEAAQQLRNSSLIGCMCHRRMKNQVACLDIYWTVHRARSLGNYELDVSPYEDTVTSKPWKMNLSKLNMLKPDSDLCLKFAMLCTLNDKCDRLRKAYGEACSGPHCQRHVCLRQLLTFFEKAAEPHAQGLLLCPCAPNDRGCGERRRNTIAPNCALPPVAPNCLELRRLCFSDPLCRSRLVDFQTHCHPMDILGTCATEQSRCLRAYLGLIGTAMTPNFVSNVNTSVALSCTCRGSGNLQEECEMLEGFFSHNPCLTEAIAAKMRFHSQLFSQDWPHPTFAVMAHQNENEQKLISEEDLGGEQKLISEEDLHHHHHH
Method: The equilibrated sample solutions were then transferred to the hARTEMIN-mmH-coated plate. […] Absorbance was recorded at 450 nm on a Victor X5 plate reader (Perkin Elmer) to determine the amount of free hGFRα3-hFc in the pre-equilibrated hGFRα3-hFc-antibody solutions that was able to bind to the plate coated with hARTEMIN-mmH. IC₅₀ values, defined as the concentration of antibody required to reduce the signal from a constant concentration of hGFRα3-hFc by 50%, were calculated from the data using Prism software from GraphPad. The absorbance measured at the constant amount of 120 pM hGFRα3-hFc in the absence of anti-GFRα3 antibody is defined as 0% blocking and the absorbance with no added hGFRα3-hFc is defined as 100% blocking. The observed absorbance in the wells containing the highest antibody concentration was used to calculate the maximum blocking percent shown in the table.
In the second ELISA format, the plates, samples and data were processed similarly as for the first format except both hARTEMIN-mmH and human RET with a C-terminal 10 histidine tag (hRET-10His; R&D Systems, #1168-CR/CF) were coated for the blocking ELISA experiment. The 96-well microtiter plates were coated with a mixture of 1.2 ug/ml hARTEMIN-mmH and 6.9 ug/ml hRET-10His proteins in PBS overnight at 4° C. and then blocked with a solution of 0.5% (w/v) BSA. A constant amount of biotinylated human GFRα3 with a C-terminal myc-myc-hexahistidine tag (biotin-hGFRα3-mmH; SEQ ID:370) at 1 nM was pre-mixed with varied amounts of anti-GFRα3 antibodies, ranging from 0 to ˜100 nM in serial dilutions, followed by a 1 hour incubation at RT to allow antibody-biotin-hGFRα3-mmH binding to reach equilibrium. The equilibrated samples were then transferred to the coated plate. After 1 hour of binding, the plate was washed, then the bound biotin-hGFRα3-mmH was detected using HRP conjugated streptavidin (Pierce, #N200), and colorimetric signals were developed using TMB HRP substrates.

| % max blocking [%] | Binder |
| --- | --- |
| 95 | B7 |
| 68 | B8 |
| 28 | B9 |
| 91 | B10 |
| 44 | B11 |

target: T2, human GFRα1 expressed with a C-terminal …; experiment: BLI Octet, antigen captured on anti-hFc tips
Method: as §1

| binding result | Binder |
| --- | --- |
| no binding (tested: 100 ug/mL) | B1 |
| no binding (tested: 100 ug/mL) | B3 |
| no binding (tested: 100 ug/mL) | B4 |
| no binding (tested: 100 ug/mL) | B5 |
| no binding (tested: 100 ug/mL) | B6 |

— patent US20140056903A1 (Regeneron, published 2014)
